Target: integrin αIIbβ3 (human) (UniProt P05106)
Assay: epifluorescence microscopy of co-clustering on giant unilamellar vesicles

| Substance | stoichiometry N (talin:integrin) | stoichiometry N (scale: talin:integrin) | stoichiometry N (kindlin:integrin) | stoichiometry N (scale: kindlin:integrin) |
| --- | --- | --- | --- | --- |
| eGFP-talin F2-F3 (domain or fragment) | 2 | 3 | – | – |
| mCherry-kindlin-2 (from UniProt Q96AC1 1-680) (natural protein) | – | – | 3 | 4 |

Source: doi:10.1101/2022.10.07.511266
